Non-standard residues stand in square brackets, D forms with d. No end group written: not given here. *: point of attachment. Aib = CC(C)(N)C(=O)O; For = O=C*
Target: T1, calcitonin receptors (human T47D / MCF7 breast carcinoma cells) (human), P30988
T1 chain: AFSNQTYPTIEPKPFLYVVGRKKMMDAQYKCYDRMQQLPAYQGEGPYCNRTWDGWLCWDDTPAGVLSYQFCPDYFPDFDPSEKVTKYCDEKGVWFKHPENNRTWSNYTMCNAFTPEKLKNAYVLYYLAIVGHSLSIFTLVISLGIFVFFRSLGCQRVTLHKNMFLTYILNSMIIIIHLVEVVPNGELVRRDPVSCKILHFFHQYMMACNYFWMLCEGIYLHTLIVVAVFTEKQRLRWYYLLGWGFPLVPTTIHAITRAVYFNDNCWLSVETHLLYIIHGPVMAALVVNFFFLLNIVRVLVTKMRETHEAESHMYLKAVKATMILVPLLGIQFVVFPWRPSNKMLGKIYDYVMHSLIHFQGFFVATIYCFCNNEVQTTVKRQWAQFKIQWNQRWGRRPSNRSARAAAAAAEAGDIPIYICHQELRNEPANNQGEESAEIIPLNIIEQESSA
Test: radioligand competition vs 125I-salmon calcitonin, human T47D cell membranes

IC50: 93 nM
Binder: VL[Aib]K(For)LSQEL[Aib]K(For)LQTYPRTNTGSNTY-NH2 [Compound 8]
